In US20050037963A1:

Assays:
[1] = molecular target: endogenous FAK of NIH 3T3 cells (mouse) (UniProt P34152); assay: cell-based or functional assay
[2] = molecular target: endogenous FIP200 of NIH 3T3 cells (mouse) (UniProt Q9ESK9); assay: cell-based or functional assay
endogenous FIP200 of NIH 3T3 cells (mouse), sequence (Q9ESK9 whole entry): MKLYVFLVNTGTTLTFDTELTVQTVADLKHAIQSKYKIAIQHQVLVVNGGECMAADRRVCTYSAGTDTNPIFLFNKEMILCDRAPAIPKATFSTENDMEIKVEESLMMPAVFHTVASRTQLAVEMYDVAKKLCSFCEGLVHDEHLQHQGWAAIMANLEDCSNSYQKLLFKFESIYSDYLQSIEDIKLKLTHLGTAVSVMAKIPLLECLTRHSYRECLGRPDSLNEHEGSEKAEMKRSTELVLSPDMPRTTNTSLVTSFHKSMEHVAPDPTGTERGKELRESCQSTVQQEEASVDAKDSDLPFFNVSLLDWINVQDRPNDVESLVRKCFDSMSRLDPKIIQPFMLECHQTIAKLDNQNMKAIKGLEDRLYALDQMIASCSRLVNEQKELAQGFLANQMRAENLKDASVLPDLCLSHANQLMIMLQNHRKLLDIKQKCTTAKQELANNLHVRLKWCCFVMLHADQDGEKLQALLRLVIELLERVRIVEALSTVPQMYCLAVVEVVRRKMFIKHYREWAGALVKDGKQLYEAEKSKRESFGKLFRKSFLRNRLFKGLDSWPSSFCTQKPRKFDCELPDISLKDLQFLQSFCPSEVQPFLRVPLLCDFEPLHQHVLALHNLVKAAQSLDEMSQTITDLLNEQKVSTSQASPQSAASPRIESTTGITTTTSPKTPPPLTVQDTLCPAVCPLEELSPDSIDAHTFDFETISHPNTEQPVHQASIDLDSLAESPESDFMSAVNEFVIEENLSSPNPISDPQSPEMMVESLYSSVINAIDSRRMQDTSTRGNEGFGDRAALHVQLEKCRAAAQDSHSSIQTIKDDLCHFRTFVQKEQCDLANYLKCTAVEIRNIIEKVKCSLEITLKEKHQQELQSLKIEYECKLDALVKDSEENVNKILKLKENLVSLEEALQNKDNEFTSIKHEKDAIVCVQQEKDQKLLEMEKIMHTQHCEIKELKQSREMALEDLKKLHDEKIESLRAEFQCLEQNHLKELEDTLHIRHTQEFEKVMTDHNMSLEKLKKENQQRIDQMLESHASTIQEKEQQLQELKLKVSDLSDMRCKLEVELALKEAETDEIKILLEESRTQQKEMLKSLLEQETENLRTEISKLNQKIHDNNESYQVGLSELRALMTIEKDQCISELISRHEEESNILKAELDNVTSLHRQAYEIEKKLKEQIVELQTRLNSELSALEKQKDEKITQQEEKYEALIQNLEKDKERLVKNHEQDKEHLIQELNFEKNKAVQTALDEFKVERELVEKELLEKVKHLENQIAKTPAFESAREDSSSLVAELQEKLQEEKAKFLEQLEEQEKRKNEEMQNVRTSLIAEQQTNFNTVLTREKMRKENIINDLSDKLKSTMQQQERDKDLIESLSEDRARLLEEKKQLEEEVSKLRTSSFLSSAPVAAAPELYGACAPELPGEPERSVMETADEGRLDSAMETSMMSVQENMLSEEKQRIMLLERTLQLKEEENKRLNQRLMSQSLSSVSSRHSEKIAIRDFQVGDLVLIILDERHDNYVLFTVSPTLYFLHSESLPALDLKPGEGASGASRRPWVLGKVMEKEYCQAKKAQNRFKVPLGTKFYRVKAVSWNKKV

endogenous FAK of NIH 3T3 cells (mouse), sequence (P34152 2-1052 limits assumed): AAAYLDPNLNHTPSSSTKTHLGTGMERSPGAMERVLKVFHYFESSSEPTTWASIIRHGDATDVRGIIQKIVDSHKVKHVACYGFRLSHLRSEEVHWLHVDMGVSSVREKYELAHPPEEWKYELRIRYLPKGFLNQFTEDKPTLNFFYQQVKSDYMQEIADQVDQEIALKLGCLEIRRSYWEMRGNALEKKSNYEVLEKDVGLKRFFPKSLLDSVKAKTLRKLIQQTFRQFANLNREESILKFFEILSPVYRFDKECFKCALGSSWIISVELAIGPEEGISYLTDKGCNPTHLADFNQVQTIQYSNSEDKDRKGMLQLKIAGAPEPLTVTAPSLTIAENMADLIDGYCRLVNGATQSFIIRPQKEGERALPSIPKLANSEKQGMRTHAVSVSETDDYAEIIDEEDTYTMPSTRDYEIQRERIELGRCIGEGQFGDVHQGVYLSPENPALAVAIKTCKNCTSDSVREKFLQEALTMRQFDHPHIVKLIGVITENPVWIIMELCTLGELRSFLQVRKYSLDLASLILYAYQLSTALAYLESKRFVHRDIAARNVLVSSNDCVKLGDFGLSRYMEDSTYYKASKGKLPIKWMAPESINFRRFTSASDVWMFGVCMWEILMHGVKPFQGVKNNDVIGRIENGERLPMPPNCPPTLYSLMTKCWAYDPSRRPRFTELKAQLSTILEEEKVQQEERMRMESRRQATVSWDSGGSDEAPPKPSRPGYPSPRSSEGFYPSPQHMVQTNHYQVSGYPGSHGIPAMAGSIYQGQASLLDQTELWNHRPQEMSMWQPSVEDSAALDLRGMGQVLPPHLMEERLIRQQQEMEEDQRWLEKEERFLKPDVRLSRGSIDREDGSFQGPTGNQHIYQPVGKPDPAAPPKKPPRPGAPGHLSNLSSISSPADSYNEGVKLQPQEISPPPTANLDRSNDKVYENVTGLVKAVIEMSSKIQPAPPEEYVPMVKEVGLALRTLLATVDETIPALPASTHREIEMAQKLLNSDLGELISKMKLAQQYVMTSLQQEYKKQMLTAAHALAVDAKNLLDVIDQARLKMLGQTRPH

inhibition of cell spreading on FN (NIH3T3, β-gal cotransfection) [1] | further results | Substance
– | inhibition of cell cycle progression (BrdU incorporation, NIH3T3) [1]: 90% | HA-tagged full-length FIP200 (pKH3-FIP200, residues 1-1591) (from UniProt Q8TDY2 1-1594)
50% | – | Flag-tagged NT-FIP (NH2-terminal FIP200, residues 1-638) (from UniProt Q8TDY2 1-638)
– | cells entering S-phase on PLL (BrdU incorporation, NIH3T3) [2]: 30% | HA-tagged KD^KR (FAK kinase domain, residues 403-672, with the kinase-defective mutation K454 to R)
50% | – | Flag-tagged full-length FIP200 (from UniProt Q8TDY2 1-1594)
50% | – | Flag-tagged MD-FIP (middle domain FIP200, residues 639-1373) (from UniProt Q8TDY2 639-1373)
